Reference: PMC9221443, “Peptidomimetics Based on C-Terminus of Blm10 Stimulate Human 20S Proteasome Activity and Promote Degradation of Proteins” (Biomolecules, 2022)

Test system: 20S proteasome (h20S)
Experiment: Microscale thermophoresis (MST) protein-proteasome interaction
Assay type: binding, human
Conditions: NT-647-labeled protein titrated with h20S 0.06-1965 nM; 22 °C; 20 mM Tris-HCl pH 7.2; three independent experiments; read-out: EC50 of binding to 20S proteasome (MST, Hill fit)
Procedure: Enolase, α-synuclein and their oxidized forms were labeled using Monolith Protein Labeling Kit RED-NHS 2nd Generation Amine Reactive, NT-647 (Nanotemper, München, Germany), according to the manufacturer instructions. The labeling process was carried out in 50 mM HEPES buffer, pH 7.4, in the protein:NT-647 1:2 ratio. The incubation time was 60 min for enolase and 30 min for α-synuclein, at 21 °C. After labeling, the excess of the fluorescent reagent was removed using the columns provided by the manufacturer and 20 mM Tris-HCl buffer, pH 7.2, containing 200 mM NaCl and 10% glycerol. The obtained labeled proteins were concentrated on Amicon 3K spin-columns (Merck, Darmstadt, Germany). Protein concentrations were determined by measuring absorbance at 280 nm, using UV/Vis spectrophotometer (DU®730 Beckman Coulter).
Direct interactions between the fluorescently labeled, native and oxidized, proteins and the 20S proteasome were examined using microscale thermophoresis (NanoTemper Monolith NT.115). The labeled protein concentration was kept constant at 250 nM for native and oxidized α-synuclein and 125 nM and 25 nM for native and oxidized enolase, respectively. […] The EC50 values were calculated based on results obtained in three independent experiments.

B1: oxidized enolase: human enolase 2 incubated with 0.5% H2O2 for 2 h at 30 °C (protein, UniProt P09104 2-434, looked up)
Gamma-enolase: SIEKIWAREILDSRGNPTVEVDLYTAKGLFRAAVPSGASTGIYEALELRDGDKQRYLGKGVLKAVDHINSTIAPALISSGLSVVEQEKLDNLMLELDGTENKSKFGANAILGVSLAVCKAGAAERELPLYRHIAQLAGNSDLILPVPAFNVINGGSHAGNKLAMQEFMILPVGAESFRDAMRLGAEVYHTLKGVIKDKYGKDATNVGDEGGFAPNILENSEALELVKEAIDKAGYTEKIVIGMDVAASEFYRDGKYDLDFKSPTDPSRYITGDQLGALYQDFVRDYPVVSIEDPFDQDDWAAWSKFTANVGIQIVGDDLTVTNPKRIERAVEEKACNCLLLKVNQIGSVTEAIQACKLAQENGWGVMVSHRSGETEDTFIADLVVGLCTGQIKTGAPCRSERLAKYNQLMRIEEELGDEARFAGHNFRNPSVL
modifications: H2O2-oxidized
notes: human enolase 2 incubated with 0.5% H2O2 for 2 h at 30 °C
For B1, which EC50 is on record?
The EC50 was 87.8 ± 12.9 nM.
